Experimental data reported in patent publication US20240182547A1.
Positions count from the first letter of the chain named.

B1: 12A1 (antibody, V domains shown)
VH: EVQLVESGGGLIQPGGSLRLSCAGSGFTFSSYTMHWVRQAPGKGLEWVSSITGGSSYVDYSASVKGRFTISRDNAQSSLYLQMNSLRAEDTAVYYCARDDYGSGSYSNWFDPWGQGTLVTVSS
VL: QSVLTQPPSVSGAPGQRVTISCTGSSSDIGAGYDVHWYQQLPGTAPKLLIFANTNRPSGVPDRFSGSKSGASASLAITGLQADDEADYYCQSYDRSLSHVFGTGTKVTVLG
B2: 4G1 (antibody, V domains shown)
VH: QVTLKESGGGLVKPGGSLRLSCAASGFRLSSYGMNWVRQAPGKGLEWVSSISASSSFINYADSVRDRFTISRDNAKNSLYLQMNSLRAEDTAVYYCARDDYGSGSYSNWFDPWGQGTLVTVSS
VL: B1 VL with S25N, D28N, I29L, T44R, G79S
B3: 10E7 (antibody, V domains shown)
VH: EVQLVESGGGLVKPGGSLRLSCAASGFTFTSYRMHWVRQAPGKGLEWVSSITGGGNYIEYADSVKGRFTISRDNAKNSLDLQMNSLRAEDTAIYYCARDMYGLGSYYSPNYFDSWGQGTLVTVSS
VL: B1 VL with D28N, T44R
B4: 12B11 (antibody, V domains shown)
VH: EVQLVESGGGVVQPGRSLRLACAASGFTFNSYAMHWVRQAPGKGLEWVSSITGGSSYVDYSASVKGRFTISRDNAQSSLYLQMNSLRAEDTAVYYCARDMYGLGSYYSPNYFDPWGQGTLVTVSS
VL: B1 VL with Q1S, S2Y, V3E, D28N, T44R, A71T, D83E, R95S, H99Y
B5: #12m (antibody, V domains shown)
VH: EVQLVESGGGLVKPGGSLRLSCAGSGFAFSSYTMHWVRQAPGKGLEWVSSITGGSSYLDYAHSVKGRFTISRDNGQNSLFLQMNSLRTEDTAVYYCARDDYGSGSYSNYFDPWGQGTLVTVSS
VL: B1 VL with D28N, L41V, A52G, N53S, A82T, D83E
B6: 2H1 (antibody, V domains shown)
VH: B1 VH with E1Q, Q3T, V5K, L11V, I12V, P14S, G16R, G24A
VL: B1 VL with D28N, T44R, F51Y, P61A
B7: 3H8 (antibody, V domains shown)
VH: B1 VH with I12V, Q13K, Q115R, L118T
VL: B1 VL with S2P, P8L, V10A, A13T, D28N, T44R, A71T, D83E

biological target: recombinant F-protein (respiratory syncytial virus (RSV)) (UniProt P03420); experiment: SPR Biacore T-200, antibody captured on protein A chip, F-protein as analyte
Sequence (P03420 whole entry): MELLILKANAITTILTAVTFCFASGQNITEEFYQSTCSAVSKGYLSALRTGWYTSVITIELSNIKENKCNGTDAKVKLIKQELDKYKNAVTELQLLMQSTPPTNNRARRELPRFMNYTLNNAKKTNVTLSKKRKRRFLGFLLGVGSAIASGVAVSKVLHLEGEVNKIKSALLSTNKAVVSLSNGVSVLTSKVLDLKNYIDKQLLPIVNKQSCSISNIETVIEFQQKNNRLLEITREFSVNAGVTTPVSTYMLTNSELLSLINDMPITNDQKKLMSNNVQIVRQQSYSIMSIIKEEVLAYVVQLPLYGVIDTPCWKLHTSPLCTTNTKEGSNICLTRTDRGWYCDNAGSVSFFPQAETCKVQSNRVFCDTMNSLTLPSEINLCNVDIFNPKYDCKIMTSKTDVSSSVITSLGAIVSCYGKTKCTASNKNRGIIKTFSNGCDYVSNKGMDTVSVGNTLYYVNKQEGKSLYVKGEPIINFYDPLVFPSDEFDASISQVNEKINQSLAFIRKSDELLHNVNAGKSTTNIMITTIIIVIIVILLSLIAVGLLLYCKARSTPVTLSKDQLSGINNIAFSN

In order of falling Kd:
1. B2  0.0341 nM
2. B3  0.0138 nM
3. B4  0.0115 nM
4. B1  0.0114 nM
5. B5  0.00677 nM
6. B7  0.00397 nM
7. B6  0.00384 nM

In order of falling koff:
1. B7  6.06e-05 s⁻¹
2. B2  6.02e-05 s⁻¹
3. B6  5.74e-05 s⁻¹
4. B1  3.18e-05 s⁻¹
5. B4  2.89e-05 s⁻¹
6. B3  2.81e-05 s⁻¹
7. B5  2.07e-05 s⁻¹

In order of rising kon:
1. B2  1.77e+06 M⁻¹ s⁻¹
2. B3  2.03e+06 M⁻¹ s⁻¹
3. B4  2.52e+06 M⁻¹ s⁻¹
4. B1  2.8e+06 M⁻¹ s⁻¹
5. B5  3.06e+06 M⁻¹ s⁻¹
6. B6  1.5e+07 M⁻¹ s⁻¹
7. B7  1.53e+07 M⁻¹ s⁻¹
